Reference: patent publication US20240009285A1 (REGENERATIVE RESEARCH FOUNDATION, published 2024)
Where a chain is given by its changes, count along the chain named. Numbers in names are those of the source. One block for each binder: values may come before it.

Assays:
[1] = biological target: GFP-Tau-(0N4R) (human, UniProt P10636-6 1-383); assay: cell-based or functional assay
[2] = biological target: human α-synuclein protein (human, UniProt P37840 1-140); assay: surface plasmon resonance (SPR); no numbers given

Sequence of GFP-Tau-(0N4R) (P10636 other isoform, or with tags, fused parts or gaps): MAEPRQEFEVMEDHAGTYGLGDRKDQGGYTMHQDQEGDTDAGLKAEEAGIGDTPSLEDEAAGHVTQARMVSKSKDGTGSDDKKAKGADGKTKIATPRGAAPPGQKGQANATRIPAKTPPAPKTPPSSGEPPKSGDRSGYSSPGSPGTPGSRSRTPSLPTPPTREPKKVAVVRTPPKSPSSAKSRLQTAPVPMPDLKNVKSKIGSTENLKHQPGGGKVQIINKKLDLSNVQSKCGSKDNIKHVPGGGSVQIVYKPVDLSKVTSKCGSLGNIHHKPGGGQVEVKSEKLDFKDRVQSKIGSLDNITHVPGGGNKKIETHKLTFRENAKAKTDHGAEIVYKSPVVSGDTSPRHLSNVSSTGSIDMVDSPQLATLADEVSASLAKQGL

B3: scFv-N-hPEST-D433A (scFv, V domains shown)
VH: QVQLVESGGGLVKPGGSLRLSCAASGFTFSSYAMSWVRQAPGKGLEWVAAISGSGDNTYYADSVKGRFTISRDNSENTVHLQMAGLRAEDTALYFCAKDGPAVGNPGGYFDFWGRGTLVTVSS
reduction of total tau vs EV-CON (western blot) [1]: ~40%

B4: VHH-4C-N77D (VHH)
VHH: VQLVESGGGGLVQPGGSLRLSCVTPGGIFSDYAMGWYRQAPGKQRELVADITVSDTTRYSDPVKGRFTISRDNAKDMVYLQMNSLKPEDAAIYTCNAQKWEDRYGSSERYDYWGQGTQVTVSS
notes: Unfused nanobody as named in the SPR statement; also called VHH-N77D
binding result [2]: binds

Next, values leading:

reduction of total tau vs EV-CON (western blot) [1]: ~40%
B1: scFv-V-hPEST-D433A (scFv, V domains shown)
VH: B3 VH with A102E

reduction of total tau vs EV-CON (western blot) [1]: ~40%
B2: scFv-N-hPEST-S445A (scFv, V domains shown)
VH: B3 VH
